“Also recorded” adds a separate entry of the source.
Experiments:
[1] = system: hemocoagulase of Agkistrodon acutus; experiment: effect of PMSF on the agglutination time of the hemocoagulase; format: biochemical
Experimental: (§1) 1% bovine fibrinogen (Sigma Company) solution was prepared with physiological saline.
(§2) The operational steps of the experiment were as follows:
(§3) (1) 2 ml 1% bovine fibrinogen solution was kept at constant temperature of 37° C. for 5 min;
(§4) (2) 3 tubes were respectively marked with 1 #, 2 #, 3 #, then 200 μl hemocoagulase solution (5 u/ml) diluted one time with distilled water was added into each of 3 tubes;
(§5) (3) 10 μl distilled water was added into tube 1#, 10 μl isopropanol was added into tube 2#, and 10 μl PMSF was added into tube 3#, and the tubes were kept at constant temperature of 37° C. in water bath for 5 min;
(§6) (4) Observations of the agglutination experiments were carried out separately in the order of the numbering of the above tubes. 200 μl 1% bovine fibrinogen solution at constant temperature was added into each of the tubes respectively, followed by counting time immediately and shaking the tube gently; then the tube was kept to stand in water bath of 37° C. The agglutination reaction was observed. When the solution was completely coagulated, time-counting was finished.

[2] = system: human fibrinogen; experiment: hydrolyzing human fibrinogen with the hemocoagulase, SDS-PAGE; format: biochemical; conditions: for band of alpha subunit of human fibrinogen: hemocoagulase 1 unit, 37° C.
Experimental: A 4 mg/ml human fibrinogen solution was prepared with 50 mM Tris-HCl buffer solution(pH 7.4). 0.5 ml human fibrinogen solution were respectively added into each of 5 tubes; 1 activity unit of the purified hemocoagulase was separately added into each of 4 tubes according to 4 different time intervals of heat preservation time for hydrolyzing, and the tubes were kept at 37° C. in water bath for 4 h, 2 h, 1 h and 0.5 h, respectively; after that, SDS-PAGE was carried out immediately to observe the hydrolyzing degree of the human fibrinogen. Meanwhile, another tube containing 0.5 ml of the human fibrinogen solution was kept at 37° C. in water bath for 4 h as a control.

[3] = system: bovine fibrinogen; experiment: enzymatic activity assay (bovine fibrinogen assay or normal human plasma assay); format: biochemical; conditions: hemocoagulase of Example 2 further purified by HPLC
Experimental: The above dialyzed enzyme solution was loaded on a pre-equilibrated DEAE-Sepharose Fast Flow anion exchange chromatography column, and the column was eluted with 0.01M, pH7.4 PBS. Then, the stepwise elution was conducted with 0.01M, pH7.4 PBS containing 0.02M, 0.04M, 0.06M, 1.0M NaCl respectively, and the second eluting peak of 0.06M NaC1 eluent was collected to obtain 1,050 ml of eluent. […] The 1,050 ml eluent was ultra-filtrated to 135 ml by Millipore Pellicon 2 tangential flow ultra-filter (0.1M^2 cut off 5 k membrane). The 135 ml ultra-filtrated solution was poured into a dialysis bag and dialyzed against deionized water for 24 hours, and the deionized water was changed 3 times during the dialysis. After dialysis, the volume of the enzyme solution is 159 ml, and the determined content of the total protein in the solution is 240 mg, the determined specific activity of the enzyme is 195 u/mg protein and a final yield of 0.8%. […]
1 ml 1.0% bovine fibrinogen (Sigma company) prepared with physiological saline was added to a tube, kept at 37±0.5° C. in water bath for 3 min, followed by adding 1 ml 37±0.5° C. preheated enzymatic solution to be determined was added into the tube while counting time immediately; if white flocs appeared in the bovine fibrinogen solution by shaking it within 120±30 seconds, the activity unit of the enzymatic solution is determined to be 1 u/ml. […]

[4] = system: bovine fibrinogen; experiment: agglutination experiment, time to complete coagulation of bovine fibrinogen solution; format: biochemical; conditions: 200 μl hemocoagulase solution (5 u/ml), 200 μl 1% bovine fibrinogen, 37° C.
Experimental: as §1, §2, §3, §4, §5, §6

[5] = isoelectric focusing electrophoresis analysis; format: physicochemical
Experimental: The above dialyzed enzyme solution was loaded on a pre-equilibrated DEAE-Sepharose Fast Flow anion exchange chromatography column, and the column was eluted with 0.01M, pH7.4 PBS. Then, the stepwise elution was conducted with 0.01M, pH7.4 PBS containing 0.02M, 0.04M, 0.06M, 1.0M NaCl respectively, and the second eluting peak of 0.06M NaC1 eluent was collected to obtain 1,050 ml of eluent. […] The 1,050 ml eluent was ultra-filtrated to 135 ml by Millipore Pellicon 2 tangential flow ultra-filter (0.1M^2 cut off 5 k membrane). The 135 ml ultra-filtrated solution was poured into a dialysis bag and dialyzed against deionized water for 24 hours, and the deionized water was changed 3 times during the dialysis. After dialysis, the volume of the enzyme solution is 159 ml, and the determined content of the total protein in the solution is 240 mg, the determined specific activity of the enzyme is 195 u/mg protein and a final yield of 0.8%. The protein has a HPLC purity of 98.2%, and two protein bands were shown by reduced SDS-PAGE with the molecular weight of about 15 kDa and 14.5 kDa, respectively. The enzyme has an isoelectric point(pI) of 5.5 by isoelectric focusing electrophoresis analysis.

O=S(=O)(F)Cc1ccccc1 [PMSF, Phenylmethanesulfonyl fluoride]
Agglutination time ([1]; 10 μl PMSF (4 mg/ml in isopropanol), 200 μl hemocoagulase solution (5 u/ml), 200 μl 1% bovine fibrinogen, 37° C.): > 600 s
inhibition of the activity of the hemocoagulase ([1]; 100 ppm PMSF): completely inhibits

B1: hemocoagulase (protein)
chain 1: DCSSGWSSYEGHCYKVFKQSKTWADAESFCTKQVNGGHLVSLESSGEADFVGQLLAQKLKSAKLHVWLGLRAQNKEKQCSLQWSDGSSLSYENWLEEESKKCLGVHLETGFHKWENFYCEQQDPFVCEA
chain 2: DCPSDWSSYEGHCYKPFNEPKNWADAENFCTKQHTGGHLVSFQSTEEADFVVKLAFQTFDYGLFWFGLSKLWNQCNWQWSNAAMLKYTDWAEESYCVYFKSTNNKWRSLTCRMLANFVCEFQA
hydrolysis of the alpha chain (alpha subunit) of human fibrinogen [2]: able to hydrolyze the alpha chain of human fibrinogen; also recorded: has the function of hydrolyzing the alpha subunit of the human fibrinogen
band of alpha subunit of human fibrinogen ([2]; treated for 0.5 h and 1 h): became gradually light
band of alpha subunit of human fibrinogen ([2]; treated for 2 h and 4 h): disappeared completely
enzyme activity of the solution [3]: 10 u/ml
Agglutination time ([4]; 10 μl distilled water): 50 s
Agglutination time ([4]; 10 μl isopropanol): 50 s
isoelectric point (pI) [5]: 5.5

— patent publication US8476054B2, “Thrombin-like enzyme of Agkistrodon acutus” (Konruns Pharmaceutical Co., Ltd., priority 2008, dated 2013)
